Data on four substances can be found in US12534501B2, “Targeting deregulated Wnt signaling in cancer using stabilized alpha-helices of BCL-9” (Dana-Farber Cancer Institute, Inc., priority 2011, dated 2026).

In data set [1] the test system is Colo320 cells. Description: Cellular uptake of FITC-labelled peptides. The format is cell-based. The note with it: FITC derivatives. Here is the method:
(§1) For fluorescence microscopy evaluation, cells were prepared using a cytocentrifuge (Thermo Shandon) and fixed as previously described (Sukhdeo, K. et al. Proc Natl Acad Sci USA 104, 7516-21 (2007); Mani, M. et al. Cancer Res 69, 7577-86 (2009)). Anti-β-catenin and rhodamine-conjugated secondary antibodies (5 μg/ml; Southern Biotechnology) were employed. Images were obtained using a BioRad Radiance 2000 laser scanning confocal microscope. Cell permeability of SAH-BCL9B and SAH-BCL9B(R359E) were determined by fluorescence microscopy of cells treated with FITC-derivatives of the above described stapled peptides and also by blotting/fluorescence scan, performed as previously described (Pitter, K. et al Methods Enzymol, 446, (2008), 387-408; Walensky, L. D. et al. Science 305, 1466-70 (2004). See results in FIG. 1E, FIG. 7.

Data set [2] concerns the target T1, β-catenin (Homo sapiens, UniProt P35222).
T1 construct: endogenous in cells; host or cells: Colo320
T1 sequence (P35222 1-781): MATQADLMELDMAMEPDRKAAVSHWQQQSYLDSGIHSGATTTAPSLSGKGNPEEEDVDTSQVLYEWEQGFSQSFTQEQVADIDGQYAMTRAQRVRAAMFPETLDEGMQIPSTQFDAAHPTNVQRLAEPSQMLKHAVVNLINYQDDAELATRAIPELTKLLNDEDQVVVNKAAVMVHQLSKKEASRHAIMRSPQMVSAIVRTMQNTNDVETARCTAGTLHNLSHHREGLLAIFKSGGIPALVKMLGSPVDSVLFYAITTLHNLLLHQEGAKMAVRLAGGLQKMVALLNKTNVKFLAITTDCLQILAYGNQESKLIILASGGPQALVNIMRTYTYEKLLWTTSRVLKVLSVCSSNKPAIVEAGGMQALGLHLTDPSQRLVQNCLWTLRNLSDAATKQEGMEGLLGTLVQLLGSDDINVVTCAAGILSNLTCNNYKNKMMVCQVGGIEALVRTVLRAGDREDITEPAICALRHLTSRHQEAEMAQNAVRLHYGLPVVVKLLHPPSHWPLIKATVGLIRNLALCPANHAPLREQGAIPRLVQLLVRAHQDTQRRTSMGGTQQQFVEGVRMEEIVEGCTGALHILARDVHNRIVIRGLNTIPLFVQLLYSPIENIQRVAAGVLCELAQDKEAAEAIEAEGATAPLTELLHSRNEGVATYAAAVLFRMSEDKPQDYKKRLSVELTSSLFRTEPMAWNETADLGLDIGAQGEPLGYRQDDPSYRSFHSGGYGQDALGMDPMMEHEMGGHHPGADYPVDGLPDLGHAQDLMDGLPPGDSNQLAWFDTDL
The data set can be described thus: Anti-FITC / anti-β-catenin co-immunoprecipitation from lysates of peptide-treated cells. It counts as cell-based. The following applies: FITC and β-catenin immunoprecipitation, in situ. The source says: (§2) Western blotting, performed as described (Sukhdeo, K. et al. Proc Natl Acad Sci USA 104, 7516-21 (2007)), employed the following primary antibodies: BCL9 (6109) (Mani, M. et al. Cancer Res 69, 7577-86 (2009)), BCL9 (ab37305, Abcam), B9L (AF4967, R&D Systems), β-catenin (CAT5-H10, Zymed), FITC (ab19224, Abcam), Actin-HRP (C-11, Santa Cruz), Caspase3 (#9662, Cell Signaling), IκBα (#9242, Cell signaling), PARP (#9542, Cell Signaling), E-cadherin (#3195, Cell Signaling), and Lamin B (sc-6217, Santa Cruz). Horseradish peroxidase conjugated secondary antibodies were purchased from Santa Cruz and SouthernBiotech. Co-immunoprecipitation was performed as described (Walensky, L. D. et al. Science 305, 1466-70 (2004)). Briefly, cells were lysed in 50 mM Tris, 150 mM NaCl, and 1% CHAPS buffer containing protease and phosphatase inhibitors. Lysates were precleared with Protein A/G PLUS-agarose beads (Santa Cruz Biotechnologies) for 3 hours followed by overnight incubation at 4° C. with the respective antibodies. Agarose A/G beads were then added for 4 h, pelleted, and washed as described (Walensky, L. D. et al. Science 305, 1466-70 (2004)). See results in FIG. 1D, FIG. 1H, FIG. 2A, FIG. 8.

In data set [3] the test system is MM1S cells. The data set can be described thus: Cellular uptake of FITC-labelled peptides. The format is cell-based. The following applies: FITC derivatives. As for the experimental part: as §1
In data set [4] the target is T2, β-catenin/E-cadherin interaction (Homo sapiens, UniProt P35222).
T2 construct: anti-β-catenin co-immunoprecipitation of E-cadherin from MCF7 cell lysates; endogenous in cells; host or cells: MCF7
T2 sequence (P35222 2-781 limits assumed): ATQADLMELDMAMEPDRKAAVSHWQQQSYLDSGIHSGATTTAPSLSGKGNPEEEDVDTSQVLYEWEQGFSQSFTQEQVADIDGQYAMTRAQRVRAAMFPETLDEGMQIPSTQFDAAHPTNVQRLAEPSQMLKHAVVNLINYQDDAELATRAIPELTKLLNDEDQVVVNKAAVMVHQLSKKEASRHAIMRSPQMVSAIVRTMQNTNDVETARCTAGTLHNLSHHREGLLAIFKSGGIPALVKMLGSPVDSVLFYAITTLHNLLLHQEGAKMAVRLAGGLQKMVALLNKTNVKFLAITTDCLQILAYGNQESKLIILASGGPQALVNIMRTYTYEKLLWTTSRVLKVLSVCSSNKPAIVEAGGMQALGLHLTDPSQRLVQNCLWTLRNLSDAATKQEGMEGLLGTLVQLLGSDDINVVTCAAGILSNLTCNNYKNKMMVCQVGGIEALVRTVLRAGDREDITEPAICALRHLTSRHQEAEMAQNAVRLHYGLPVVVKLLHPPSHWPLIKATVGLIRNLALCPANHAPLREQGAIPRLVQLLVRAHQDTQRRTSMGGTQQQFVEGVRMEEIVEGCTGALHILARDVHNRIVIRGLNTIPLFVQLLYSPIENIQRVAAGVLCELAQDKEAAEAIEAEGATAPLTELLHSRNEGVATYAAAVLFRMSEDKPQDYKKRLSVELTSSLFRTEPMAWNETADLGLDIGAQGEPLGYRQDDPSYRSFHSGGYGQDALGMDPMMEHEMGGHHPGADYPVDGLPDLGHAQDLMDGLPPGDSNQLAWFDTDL
Description: Anti-β-catenin co-immunoprecipitation of E-cadherin from MCF7 cell lysates. The note with it: selectivity. The format is cell-based.
Description: as §2

Data set [5] deals with IκBα and actin. The data set can be described thus: Anti-FITC pulldown from MCF7 lysates (unrelated proteins). It counts as cell-based. The note with it: MCF7 cells, selectivity.
Description: as §2

For data set [6], the system named is β-catenin/TCF interaction. The following applies: Lepourcelet et al. 2004; cited from earlier work.
For data set [7], the system named is colon cancer cells. The following applies: Lepourcelet et al. 2004; cited from earlier work.
For data set [8] the following is noted: Sukhdeo et al. 2007; cited from earlier work.

As for “SAH-BCL9B(H358D): SEQ ID NO: 6: LSQEQLEDRERSLXTLRXIQRBLF; reverse polarity point mutant of SAH-BCL9B”, in data set [1], the cellular uptake entry was “similar”. In addition, the “β-catenin interaction by co-immunoprecipitation” value in data set [2] is given as “impaired β-catenin interaction”.
As to “FITC-SAH-BCL9B: FITC derivative (via β-Ala at the amino terminus) of SAH-BCL9B”, in data set [1], the cellular uptake result is reported as “equivalent cellular uptake” and the temperature-dependent uptake result was “equivalent temperature-dependent uptake”. Besides, the cellular uptake result in data set [3] is on record as “equivalent cellular uptake”. Moreover, the “β-catenin interaction by co-immunoprecipitation” value in data set [2] is on record as “dose-responsively co-immunoprecipitated with β-catenin”. Further, the “effect on β-catenin's interaction with E-cadherin” value in data set [4] is reported as “no effect”. The “co-immunoprecipitation of unrelated proteins (IκBα, actin)” value in data set [5] is “no co-immunoprecipitation of unrelated proteins”.
“FITC-SAH-BCL9B(R359E): FITC derivative of SAH-BCL9B(R359E)”: in data set [1], the cellular uptake entry is “equivalent cellular uptake” and the temperature-dependent uptake result is reported as “equivalent temperature-dependent uptake”. For the same substance, the cellular uptake entry in data set [3] is reported as “equivalent cellular uptake”.
Take PKF115-584: the Wnt-specific transcriptional activity result in data set [6] was “blocked Wnt-specific transcriptional activity”. For the same substance, the “growth of colon cancer cells” value in data set [7] is given as “reduced the growth of colon cancer cells”. Moreover, in data set [8], the “toxicity in treated mice” value was “severe bone marrow hypoplasia, anemia, and generalized wasting”.
